Values quoted from earlier work in publication PMC3951274.

Assays:
[1] = target: [α2(IV)454-465][α1(IV)437-448] heterotrimeric THP α2(IV)454-465, α1(IV)437-448 (Homo sapiens) (UniProt P02462)
[2] = target: α1(I)127-138 THP 127-138 (Homo sapiens) (UniProt P02452)

UniProt P02462, sequence (P02462 173-1669, chain 1 of 2): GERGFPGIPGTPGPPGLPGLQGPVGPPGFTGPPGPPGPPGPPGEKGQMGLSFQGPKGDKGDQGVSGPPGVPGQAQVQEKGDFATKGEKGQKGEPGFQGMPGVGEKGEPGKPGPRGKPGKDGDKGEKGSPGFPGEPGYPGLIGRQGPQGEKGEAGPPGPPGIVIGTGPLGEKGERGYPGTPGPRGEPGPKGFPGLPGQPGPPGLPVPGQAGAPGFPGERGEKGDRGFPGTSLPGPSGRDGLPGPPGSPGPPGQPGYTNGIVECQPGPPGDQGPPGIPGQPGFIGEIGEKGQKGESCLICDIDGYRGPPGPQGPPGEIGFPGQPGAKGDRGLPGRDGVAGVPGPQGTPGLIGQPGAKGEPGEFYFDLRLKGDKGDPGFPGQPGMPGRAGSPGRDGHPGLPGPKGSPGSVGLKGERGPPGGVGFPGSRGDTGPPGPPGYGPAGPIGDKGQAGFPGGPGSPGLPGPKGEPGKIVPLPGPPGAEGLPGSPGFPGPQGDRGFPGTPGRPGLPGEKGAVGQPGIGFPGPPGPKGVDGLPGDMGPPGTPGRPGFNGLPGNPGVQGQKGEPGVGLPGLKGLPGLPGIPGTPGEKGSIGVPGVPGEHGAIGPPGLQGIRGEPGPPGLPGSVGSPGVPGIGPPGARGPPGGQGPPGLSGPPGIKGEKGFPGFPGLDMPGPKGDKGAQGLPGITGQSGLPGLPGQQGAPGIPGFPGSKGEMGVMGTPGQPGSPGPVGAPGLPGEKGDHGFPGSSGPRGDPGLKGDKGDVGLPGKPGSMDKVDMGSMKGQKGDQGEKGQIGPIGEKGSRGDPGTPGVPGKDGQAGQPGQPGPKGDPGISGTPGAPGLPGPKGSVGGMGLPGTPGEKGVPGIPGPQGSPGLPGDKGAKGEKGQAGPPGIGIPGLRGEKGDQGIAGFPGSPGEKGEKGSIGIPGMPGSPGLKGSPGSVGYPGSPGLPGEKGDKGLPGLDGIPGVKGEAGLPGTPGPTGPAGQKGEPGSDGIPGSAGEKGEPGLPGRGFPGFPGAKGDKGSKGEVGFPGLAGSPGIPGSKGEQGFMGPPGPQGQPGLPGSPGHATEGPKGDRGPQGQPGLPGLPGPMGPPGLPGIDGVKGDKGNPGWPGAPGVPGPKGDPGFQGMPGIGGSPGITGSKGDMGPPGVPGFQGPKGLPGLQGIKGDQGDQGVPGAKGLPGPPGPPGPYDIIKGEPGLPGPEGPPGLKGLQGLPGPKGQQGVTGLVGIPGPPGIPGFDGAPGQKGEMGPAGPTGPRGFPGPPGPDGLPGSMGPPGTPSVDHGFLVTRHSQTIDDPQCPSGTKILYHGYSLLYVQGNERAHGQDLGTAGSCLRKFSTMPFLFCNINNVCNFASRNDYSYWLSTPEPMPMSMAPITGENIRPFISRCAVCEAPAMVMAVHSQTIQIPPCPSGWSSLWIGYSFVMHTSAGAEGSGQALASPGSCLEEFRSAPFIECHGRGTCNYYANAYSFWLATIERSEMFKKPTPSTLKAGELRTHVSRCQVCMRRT
UniProt P02462, sequence (P08572 184-1712, chain 2 of 2, further chain): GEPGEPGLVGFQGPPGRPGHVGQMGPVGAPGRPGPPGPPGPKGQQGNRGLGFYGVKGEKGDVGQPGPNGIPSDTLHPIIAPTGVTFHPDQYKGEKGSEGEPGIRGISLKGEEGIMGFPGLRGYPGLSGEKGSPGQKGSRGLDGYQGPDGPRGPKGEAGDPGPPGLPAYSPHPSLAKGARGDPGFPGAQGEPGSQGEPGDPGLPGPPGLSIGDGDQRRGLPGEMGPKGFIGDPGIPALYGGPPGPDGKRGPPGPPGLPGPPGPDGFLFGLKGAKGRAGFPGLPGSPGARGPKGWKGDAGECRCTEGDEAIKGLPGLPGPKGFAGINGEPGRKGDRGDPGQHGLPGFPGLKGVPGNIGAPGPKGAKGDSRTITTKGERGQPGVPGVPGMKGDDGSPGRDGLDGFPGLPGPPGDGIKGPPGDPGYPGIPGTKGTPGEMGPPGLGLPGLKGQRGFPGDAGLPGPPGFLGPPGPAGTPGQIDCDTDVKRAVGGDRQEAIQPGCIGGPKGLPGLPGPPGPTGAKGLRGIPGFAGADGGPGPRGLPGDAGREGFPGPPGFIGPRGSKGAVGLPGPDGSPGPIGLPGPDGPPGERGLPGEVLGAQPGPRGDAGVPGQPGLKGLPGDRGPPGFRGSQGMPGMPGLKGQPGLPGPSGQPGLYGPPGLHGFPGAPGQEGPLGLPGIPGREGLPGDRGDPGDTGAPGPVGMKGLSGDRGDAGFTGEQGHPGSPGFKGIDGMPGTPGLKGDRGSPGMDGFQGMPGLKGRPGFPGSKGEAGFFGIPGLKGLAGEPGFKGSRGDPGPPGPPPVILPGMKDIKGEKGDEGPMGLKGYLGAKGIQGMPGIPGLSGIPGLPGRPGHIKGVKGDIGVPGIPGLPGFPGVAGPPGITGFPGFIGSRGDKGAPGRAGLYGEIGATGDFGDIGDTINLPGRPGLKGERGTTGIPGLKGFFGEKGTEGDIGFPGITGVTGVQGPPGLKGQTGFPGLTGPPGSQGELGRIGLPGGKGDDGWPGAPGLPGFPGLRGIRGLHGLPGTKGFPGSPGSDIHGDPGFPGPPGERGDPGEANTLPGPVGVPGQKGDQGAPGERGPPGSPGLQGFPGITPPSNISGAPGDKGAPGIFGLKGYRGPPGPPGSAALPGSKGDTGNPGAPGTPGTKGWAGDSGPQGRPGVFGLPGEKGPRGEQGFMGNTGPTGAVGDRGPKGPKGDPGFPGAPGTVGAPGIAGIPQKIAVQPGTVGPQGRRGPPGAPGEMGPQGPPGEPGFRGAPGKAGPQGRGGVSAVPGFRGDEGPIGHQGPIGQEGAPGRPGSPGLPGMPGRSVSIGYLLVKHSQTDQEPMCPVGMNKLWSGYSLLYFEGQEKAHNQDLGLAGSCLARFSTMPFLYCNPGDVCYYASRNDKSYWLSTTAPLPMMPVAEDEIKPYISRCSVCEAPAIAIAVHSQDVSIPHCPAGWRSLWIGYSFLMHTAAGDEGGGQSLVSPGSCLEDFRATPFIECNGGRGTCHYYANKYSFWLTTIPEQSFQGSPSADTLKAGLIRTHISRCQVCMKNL

| Substance | Kd [1] | Kd [2] |
| --- | --- | --- |
| integrin α1β1 (from UniProt P56199) | 20 µM |  |
| integrin α2 I-domain (from UniProt P17301) |  | 0.4 µM |
